Consider three molecules from patent US6835382B2, “Ii peptide therapeutics to enhance antigen presentation” (University of Massachusetts, priority 1996, dated 2004).

The target in experiment [1] is soluble HLA-DR1 (HLA-DR alpha truncated after Asn192 with a C-terminal nine amino acid HA epitope tail; HLA-DR1 beta truncated after Lys198), made in Baculovirus-infected insect cells (human). Nature of the experiment: exchange ELISA: tethered HLA-DR1 preloaded with unlabeled hMBP(90-102) 50 uM, washed; biotin-hMBP(90-102) 50 uM alone, no AE peptide, 1 h 37 C. On the technique in general: In an ELISA, binding on a coated surface is turned into a signal by an enzyme label.

Experiment [2] has the same target. Nature of the experiment: release ELISA as Table 36; unlabeled hMBP(90-102) 250 uM alone against prebound biotin-hMBP(90-102) on tethered HLA-DR1.
For experiment [3] the target is unchanged. Nature of the experiment: release ELISA: soluble HLA-DR1 tethered by 12CA5 and preloaded with biotin-hMBP(90-102); AE peptide 64 uM, 1 h 37 C, no unlabeled peptide; biotin still bound read by avidin-HRP (1.0 = PBS control, 0.0 = no DR1; low value = released).
Experiment [4] has the same target. Nature of the experiment: loading ELISA: empty tethered HLA-DR1 with biotin-hMBP(90-102) 50 uM and AE peptide 64 uM, 1 h 37 C; biotin bound read by avidin-HRP.
The target is the same in experiment [5]. As to the kind of experiment: exchange ELISA: tethered HLA-DR1 preloaded with unlabeled hMBP(90-102) 50 uM, washed; AE peptide plus biotin-hMBP(90-102) 50 uM, 1 h 37 C; biotin bound as fraction of positive control (overnight loading).
For experiment [6] the target is unchanged. Nature of the experiment: release ELISA as Table 36; AE101 1 uM, without unlabeled hMBP(90-102).

Regarding “N-terminally biotin-labeled human myelin basic protein peptide hMBP(90-102) (from UniProt P02686 90-102)”, the Relative Binding (fraction of positive control o.d.) in experiment [1] was determined as 0.08.
Consider “unlabeled human myelin basic protein peptide hMBP(90-102) (from UniProt P02686 90-102)”, for which the Relative Release (fraction of positive control o.d.) in experiment [2] is 0.81.
In the case of YRMKLPKSAKPVSQMR [AE101], the figures for the Relative Release (fraction of positive control o.d.) in experiment [3] and in experiment [6] were -0.33 and 0.02, respectively. The Relative Enhancement (of biotin-hMBP(90-102) binding to empty HLA-DR1) (relative to no AE peptide = 1) in experiment [4] worked out at 2.66. In experiment [5], the Relative Binding (of biotin-hMBP(90-102) to HLA-DR1) (fraction of positive control o.d.) was 0.31.
